In the DeepSol protein solubility set:

experiment: soluble on expression in E. coli; label from the status in PepcDB or PDB records

| Sequence | soluble on expression in E. coli |
| --- | --- |
| MKILILGNGQVGSTVAQNLAAIPNNDVTVIDIDEKALQETGSRLDVQTVFGNGASPFTLERAGAEDADLLLALSRSDETNIVACKVAADLFNIPGRIARVRSSEYLEYLSPKLENNENGSLSIFGITETISPEQLVTEQLAGLIDCPGALQVLRFADDRVRMVIIQARRGGLLVGRSIADIAQDLPDGADCQICAVYRNNRLIVPAPQTVIIEGDEILFAAAAENIGAVIPELRPKETSTRR | not soluble |
| MKILLIGASGTLGSAVKERLEKKAEVITAGRHSGDVTVDITNIDSIKKMYEQVGKVDAIVSATGSATFSPLTELTPEKNAVTISSKLGGQINLVLLGIDSLNDKGSFTLTTGIMMEDPIVQGASAAMANGAVTAFAKSAAIEMPRGIRINTVSPNVLEESW | not soluble |
| MKILLRNALITNEGKTFPGSVMIDGAFISRIIEGELPADDNLSADEVIECSGLRLFPGCIDDQVHFREPGLTHKATIASESRAAVAGGVTSFMDMPNTNPPTTMWERLLEKRQIGADTAWANYGFFFGGTNDNIDEIKRVDKHLVPGLKLFLGSSTGNMLVDNKETLEKIFGECDLLIATHCEKEEIIRANKEHYKAKYGNDLDIHFHPLIRSEEACYRSSAEAVELAERMNARLHILHLSTEKELSLFRNDIPTAQKRITSEVCVHHLWFSDTDYGRLGNRIKWNPAIKKESDREALRAAVRNGRIDIIATDHAPHLLREKEGSCLQAASGGPLVQHSLLALLELCNQ | not soluble |
| MKILLRNALITNEGKTFPGSVMIDGAFISRIIEGELPADDNLSADEVIECSGLRLFPGCIDDQVHFREPGLTHKATIASESRAAVAGGVTSFMDMPNTNPPTTMWERLLEKRQIGADTAWANYGFFFGGTNDNIDEIKRVDKHLVPGLKLFLGSSTGNMLVDNKETLEKIFGECDLLIATHCEKEEIIRANKEHYKAKYGNDLDIHFHPLIRSEEACYRSSAEAVELAERMNARLHILHLSTEKELSLFRNDIPTAQKRITSEVCVHHLWFSDTDYGRLGNRIKWNPAIKKESDREALRAAVRNGRIDIIATDHAPHLLREKEGSCLQAASGGPLVQHSLLALLELCNQGIFSIEEIVSKTAHIPATLFAIEKRGYIRPGYYADLVLVDPSSPHTVSADNILSLCGWSPFEGFTFSHSVAYTFVNGCLAYAKGRLAESRPTVHPLFFNR | soluble |
| MKILVIGAGPAGLVFASQLKQARPLWAIDIVEKNDEQEVLGWGVVLPGRPGQHPANPLSYLDAPERLNPQFLEDFKLVHHNEPSLMSTGVLLCGVERRGLVHALRDKCRSQGIAIRFESPLLEHGELPLADYDLVVLANGVNHKTAHFTEALVPQVDYGRNKYIWYGTSQLFDQMNLVFRTHGKDIFIAHAYKYSDTMSTFIVECSEETYARARLGEMSEEASAEYVAKVFQAELGGHGLVSQPGLGWRNFMTLSHDRCHDGKLVLLGDALQSGHFSIGHGTTMAVVVAQLLVKALCTEDGVPAALKRFEERALPLVQLFRGHADNSRVWFETVEERMHLSSAEFVQSFDARRKSLPPMPEALAQNLRYALQRLEHHHHHH | soluble |
| MKIRILGSGTSTGVPEIGCTCAVCTSKDPRDCRLRTSALVYTDDATILLDCGPDFREQMLRVPFGKIDAVLISHEHYDHVGGLDDLRPFCRFGEVPIYAETYTAERLRSRMPYCFVEHSYPGVPNIPLREIEPNRPFLVNHTEVLPLRVMHGKLPILGYRIGKLGYITDMLTMPDESFEQLQGIEVLVMNALRIAPHNTHQSLSEALEAVKRIGAKETWLIHMSHHIGLQADVEKQLPPHVHFAFDGLELECLEHHHHHH | not soluble |
| MKISIVIVTYNRIPALCELLESISRQTLMPYEIIIVNDAGESVVPVKALYPELPIAVINLEKNSGHVAARNAGVKEASGDCIMLCDDDDFFTPGHIEKMAKEIETADFVHSDAEIVSFEEKNGTRYPVSRKLFAYTADYEDMRVFSTYVPSGSMYRRFLHDEIGYFDADVHNYWDWDFYLRAAKDYRVKRVPCASVIYAFSDAGDNQSADLGAKRKQYLDRLSEKHGLGELPTKNFAVLLEEPEMKRREAKSEMVWDGEPVYSRLHRSLEHHHHHH | not soluble |
| MKISVITINYNNGEQLEATIQSVVSNVTVLRELLGEKAEYIVIDGGSVDCSVSVLQKYSEYISYWISEKDKGIYHAMNKGISVAQGEYCFFLNSGDTFYEDDTLKKALLFLKEDFVCGNAVLKYAGGINEWSAPEIVNTLFFMQRFSVCHQSLFIRTELLKSHPYNETLMIVADYEQMFYEIAVNHRSYKKIDLTICYYGCDGVSSDHEKADAEKRSVINEFRYLGYIEPDELWNVVSKLKIGTRKYRLLLSLAKCLTSSPKYWVRLEHHHHHH | soluble |
| MKISVLVPTLGTREKEIRRLLETLEKQSYKDFEIIFVTQDNHEIVKDIIYKYSNLDIKQIEMSVKGLSRARNRGLEQASGEIVVLSDDDCWYPANAFEIVVNAFKKRQCAKIVLSQIFDPEKNIPYKNYTSDEEYVRNKLQLMSKSSIEVAFKKDLVMNKKFDERLGLGSEFVCGEEVDFLLSNYEKNAIFYIPEVTVYHKKKENGSSNKQIIAKGAIYGKNFNIFICVLVLLRDLMLKKENNFKYFFEGYNEYFKRTN | not soluble |
| MKIVAITSCPNGIAHTYMAQEKLEQVAKEMGVDIKVETQGGVGAENVLTTQDIEEADGVIIAADKQVDLSRFVGKRLINENVREGIHNPRGLIQRIINQDAPIYQSETN | not soluble |
| MKIVSKSSPLPLHYQLKMILQEMIENEELLPGDTIPTERELCEIQKISRMTVNKAILSLVSEGILYREQGKGTFVAKKKEKQQLTKLKSFTEEMREKGLNISTKILSFEIKTATKHISTLLELPHKKMKVIEIIRLRLTDNDPSAIETVVLPLYLFSDMTKEVIDGKSLYNTFREKYGYEPTKAKQTIEPIMLTDYEAKFLNQVGNSLALLFRRLTYRKDGVPIEYTKSIYRSEKYKYEVILT | not soluble |
| MKKAALMLITFLGLTACSQGVTSMPDRTQTPCGNKPNCVSTQDQREEHHLEPFTLTESATLDAIEQAALQLSGAKTAEKDGNYLRIECTSKIMRFVDDLELKIDGNTLIVRSESRVGYSDFGVNRKRAEQLRTELSKAELIKLEHHHHHH | not soluble |
| MKKDAKDHARNRLMDCYIKKAPTYAAIVKIEHFENDDASSKDFEPFVVYSLNKKKRWEINEESLNSSTEGTSTKSVIIDREIPDLQDSWWCLQNDLLNNCIYHSNPVNSAQMATAKKYEKVIGYHIVRIPVNHKKVFDKKCTRDLSYRYRDSIGNVPRDLTVLQYEMKEVEHGKEDFAKENISPEVNNPSKTIGFYNLEEHFVARKQQKSKGWLTVN | not soluble |
| MKKIFMMVHELDVNKGGMTSSMFNRSKEFYDADIPADIVTFDYKGNYDEIIKALKKQGKMDRRTKMYNVFEYFKQISNNKHFKSNKLLYKHISERLKNTIEIEESKGISRYFDITTGTYIAYIRKSKSEKVIDFFKDNKRIERFSFIDNKVHMKETFNVDNKVCYQVFYDEKGYPYISRNINANNGAVGKTYVLVNKKEFKNNLALCVYYLEKLIKDSKDSIMICDGPGSFPKMFNTNHKNAQKYGVIHVNHHENFDDTGAFKKSEKYIIENANKINGVIVLTEAQRLDILNQFDVENIFTISNFVKIHNAPKHFQTEKIVGHISRMVPTKRIDLLIEVAELVVKKDNAVKFHIYGEGSVKDKIAKMIEDKNLERNVFLKGYTTTPQKCLEDFKLVVSTSQYEGQGLSMIEAMISKRPVVAFDIKYGPSDFIEDNKNGYLIENHNINDMADKILQLVNNDVLAAEFGSKARENIIEKYSTESILEKWLNLFNS | not soluble |
| MKKIGFIGLGNMGLPMSKNLVKSGYTVYGVDLNKEAEASFEKEGGIIGLSISKLAETCDVVFTSLPSPRAVEAVYFGAEGLFENGHSNVVFIDTSTVSPQLNKQLEEAAKEKKVDFLAAPVSGGVIGAENRTLTFMVGGSKDVYEKTESIMGVLGANIFHVSEQIDSGTTVKLINNLLIGFYTAGVSEALTLAKKNNMDLDKMFDILNVSYGQSRIYERNYKSFIAPENYEPGFTVNLLKKDLGFAVDLAKESELHLPVSEMLLNVYDEASQAGYGENDMAALYKKVSEQLISNQK | soluble |
| MKKIKTISTLVAGLGIAFLGHTTHADAAENNNQQQSTHNYSTTEVSFSNSGNLYTSGQCTWYVYDKTGGKIGSTWGNANSWATAAQAAGFTVNNTPEEGAIMQSSEGAFGHVAFVESVNNDGSITVSEMNYDGGPFAISTRTISASEASSYNYIHLNLEHHHHHH | not soluble |
| MKKIQRTQTRDHITQMLRYEILSGNIKAGEELAQESIAEQLGLSRMPVREALQSLEQEGFLIRLPNRHMQVAHLEADRVSHIFRVIAAMAAEMFSLIPSEVGDALLIRAQALAVAEDKSCELECHAMLISYVNNRYLEKVYQQFLDGYVSYVILHLKKDNQESAQLFAELADVIRQGRRDEIGQVMQRYFLSLAEIMRQHMKDWESAEA | not soluble |
| MKKLAFAITAASGAAAVLSHHDAEASTQHKVQSGESLWTIAQQYNTSVESIKQNNNLSNNMVFPGQVINVGGSASQNTSSNTSSSSASSHTVVAGESLNIIANKYGVSVDALMQANHLNGYLIMPNQILTIPNGGSGSGSGGTATQTSGNYTSPSFNHQNLYTEGQCTWYVFDKRSQAGKPISTYWSDAKYWASNAANDGYQVDNTPSVGAIMQSTPGPYGHVAYVERINGDGSILISEMNYANGPYNMNYRTIPASEVSSYAFIHLEHHHHHH | not soluble |
| MKKNFFSDLPEETIVNTLSFLKANTLARIAQTCQFFNRLANDKHLELHQLRQQHIKRELWGNLMVAARSNNLEEVKKILKKGIDPTQTNSYHLNRTPLLAAIEGKAYQTANYLWRKYTFDPNFKDNYGDSPISLLKKQLANPAFKDKEKKQIRALIRGMQEEKIAQSKCLVC | not soluble |
| MKKRLTESQFQEAIQGLEVGQQTIEIARGVLVDGKPQATFATSLGLTRGAVSQAVHRVWAAFEDKNLPEGYARVTAVLPEHQAYIVRKWEADAKKKQETKR | soluble |
| MKKSRYTETQIVKILKEVEAGRLVKEICREYGISDATYYNWKAKYGGMESSDIKRLKDLEEENRRLKQMYAELSLDHKILKDIVEKKLLEHHHHHH | not soluble |
| MKKSSILILIIICLVGCKKGSNETTITGEIKGLGTDTLYLYGMDELYDRIDTIYVENDKFSYTTSVDTITSAYLLLKNRIEYPVFLDKGNKIKIKGDTINLNFLTISGNIYNEEFTDFQKALEDPADPSEKAGEETVDKRITVEKANTAEEMAEEFILQHHSSYVSLYLLDKYFVQKETPDFSKIKKLVEVMTGVLQDKPYIERLNETITQAEKSEIGKYAPFFSLPNAKGEKITRSSDAFKQKSLLINFWASWNDSISQKQSNSELREIYKKYKKNKYIGMLGISLDVDKQQWKDAIKRDTLDWEQVCDFGGLNSEVAKQYSIYKIPANILLSSDGKILAKNLRGEELKKKIENIVEEATEKEKKNKQKK | not soluble |
| MKKTKFSSYEEYRNYFKRLIDLERRAQTELHLKEIKTLSGKEREKRGRAILNLRAKFLGRGLGGVYLVRYSRPQGLPKTEISTGDIVLVSKGKPTVKEVQGTVAEKTNYYLVVAFRDKPPPYALGKDVRIDLFSNEITFKRMEEALKNFKEHPLRDFILGKKVLEHHHHHH | soluble |
| MKKVIFKPLKSYPVKMAMIALTLLAASPITHAEESKMKNATITVTATGENQATPDMAIINLAVVTQDKTAQKALADNNKSMNDIINAFKNNGIQANDLQTSGLSIYQSNPNKDHEKKNNGIVYHVSNSLTVRIRDLSNAGKIFDQAMALGVNSVHGITFTNANTKPFYQEARKKAIAEAIEKAKTIAEAADLKLGKIIKINENDDNYYSRPHLMSKAVNANYTDTTFSSGELNYSVSVTIVFAID | not soluble |
